Assay results taken from patent US20240299584A1, “NON-CODING RNA PROTECTING AGAINST HEART FAILURE” (MEDIZINISCHE HOCHSCHULE HANNOVER, priority 2019, published 2024).

Assays:
apoptotic cardiomyocytes = test: TUNEL and cardiac troponin T co-staining of heart sections; type: in vivo, mouse; details: transversal heart sections, doxorubicin model; circINSR given as AAV9
Description: (§1) In addition to apoptosis, doxorubicin is known to cause cardiomyocyte atrophy^12 (G). Thus, histopathology analyses were performed on transversal heart section.
Cells were fixed with 4% paraformaldehyde for twenty minutes at room temperature and then permeabilized with ice-cold 0.1% Triton-X-100 in PBS for two minutes at room temperature. Next cells were incubated with enzyme labelling solution provided with In Situ cell death detection kit (Roche) for 1 hour at 37° C. For negative staining, enzyme was not added to the labelling solution. Cells were then washed and incubated with Dapi for 15 minutes. To specifically label neonatal rat cardiomyocytes and hipsc-CM, cells were co-stained with cardiac Troponin T (Thermofisher) after Tunel staining. Images were taken with Nikon Eclipse Ti microscope and images were analyzed with NIS Elements. For analysis in each case, ten different images were analyzed from different regions and average value was taken. Similarly, cryosections of heart were also processed for staining. Numerous images covering complete heart section was taken and Tunel positive nuclei were counted in each field. Average value for each heart was calculated.

cardiomyocytes = test: Cardiomyocyte size on wheat germ agglutinin stained heart sections; type: in vivo, mouse; details: WGA stained heart sections, doxorubicin model; circINSR given as AAV9
Description: as §1
Cryosections of heart were stained with Alexa Fluor 488 labelled wheat germ agglutinin (Invitrogen) and dapi. Images were taken with Nikon Eclipse Ti microscope and images were analyzed with NIS Elements. For each heart 5 to 10 images were randomly taken from different regions of the section and minimum two hundred cells were measured and average value was taken for each heart.

HL-1 cells [1] = test: WST-1 assay (cell viability); type: cell-based, mouse; details: HL-1 cells treated with doxorubicin 0.25 μM 48 h
Description: HL-1 cells were cultured in Claycomb medium together with 10% FBS, norepinephrine, L-Glutamine and pencillin/streptomycin as manufacturer's protocol. 3T3 and RAW264.7 cells were cultured in DMEM with 10% FBS and pencillin/streptomycin. Neonatal rat cardiomyocytes (NRCM) were isolated from one to three-day old rat babies by using the Neonatal Heart Dissociation Kit (Miltenyi). Human iPSC derived cardiomyocytes (hiPSC-cm) were differentiated at the lab of IMTTS. All the cells were treated with 0.25 μM Doxorubicin (Sigma-Aldrich) for 48 hours. circ-Insr siRNA (Eurofins), in vitro circular RNA and overexpression plasmid were transfected with Lipofectamine 2000 (Life Technologies) in OptiMEM medium. NRCM and hipsc-CM were transduced by AAV6 (MOI: 1*10^4) for 72 hours.
WST-1 assay was performed using Cell Proliferation Reagent WST-1 (Roche) as per the manufacturer instruction. Briefly, HL-1 cells were seeded in 96 well plate and next day treated with 0.25 μM Doxorubicin in normal medium with 10% FBS for forty-eight hours. Next, 10 μL WST1 reagent was added and incubated for 1 hour followed by the absorbance measurement (450 nm) at HT Synergy (Biotek) plate reader.

HL-1 cells [2] = test: mtDNA copy number measurement; type: cell-based, mouse; details: doxorubicin 0.25 μM 48 h, circ-Insr by overexpression plasmid
Description: Based on the results of the foregoing examples, it was reasoned that circ-Insr could interact with SSBP1. To further confirm the interaction between circ-Insr and SSBP1, siRNA mediated circ-Insr knock-down was applied in HL-1 cells. Next, RNA pulldown was performed with circ-Insr and scramble biotinylated probes. RT-qPCR confirmed that decrease of circ-Insr appeared both in input and circ-Insr pulldown group (FIG. 23A). […] Therefore, we assumed that circ-Insr is a cofactor of SSBP1 resulting in the regulation of mitochondrial function in cardiomyocytes by stabilizing mtDNA. […] Furthermore, mito-damage assay was applied to measure the changes in mitochondrial membrane potential (MMP). […] Next, we co-transfected HL-1 cells with pcDNA-circ-Insr and SSBP1 siRNA and examined cell viability using the WST assay to explore whether SSBP1 participated in the circ-Insr overexpression-mediated therapy of doxorubicin-cardiotoxicity. RT-qPCR indicated SSBP1 siRNA could downregulate endogenous SSBP1 expression (FIG. 23G).
The ratio of mtDNA to genomic DNA was calculated by dividing copies of CYTB with copies of ACTB in each experiment (Li J, Chan M C, Yu Y, Bei Y H, Chen P, Zhou Q L, et al. miR-29b contributes to multiple types of muscle atrophy. Nature communications. 2017; 8). […] Fluorescence was measured during the last step of each cycle using the SYBR channel. […]

SSBP1 = target: T1, SSBP1 (Mus musculus, UniProt Q9CYR0); test: RNA pull-down with circINSR probe, Western blotting; type: binding; details: Western blot with SSBP1-specific antibodies
T1 construct: biotinylated DNA oligo probes against endogenous or ectopically expressed circ-Insr and linear-Insr; endogenous in cells; host or cells: 3T3 cells
T1 sequence (Q9CYR0 17-152): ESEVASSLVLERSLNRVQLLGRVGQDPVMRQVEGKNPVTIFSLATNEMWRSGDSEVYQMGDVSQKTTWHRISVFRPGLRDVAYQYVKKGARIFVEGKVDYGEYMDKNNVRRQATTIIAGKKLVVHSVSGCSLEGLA
Description: Finally, RNA pull-down experiments were performed to identify potential protein interaction partners of circINSR. To do so, a biotin-labelled probe was designed which spans the backsplice junction (FIG. 8A). […] Mass spectrometry analysis of the pull-down lysates yielded a list of potential protein interactors. After applying several filtering parameters (relative MS peptide count >15, relative enrichment over hostgene and control probe log 2FC>2) and cat rapid analysis to calculate the interaction propensity with circINSR, Single-stranded DNA-binding protein 1, SSBP1, was identified as the most probable binding partner of circINSR (FIG. 8B). […] Moreover, co-localisation of circINSR and SSBP1 in Immuno-RNA-FISH staining, further confirmed the interaction between those two.
Cell pellets were lysed in 1× Cell lysis buffer (Cell Signaling) and isolated protein was measured by Bradford (Biorad) for quantification. […] Band intensity was calculated by Image J software.
10^6 cells were washed in ice-cold phosphate-buffered saline, lysed in 500 μl co-IP buffer, and incubated with 3 μg biotinylated DNA oligo probes against endogenous or ectopically expressed circ-Insr and linear-Insr, at room temperature for 2 h. […] The bound proteins in the pull-down materials were analyzed by western blotting and the RNA sample were analysed via qRT-PCR.

B1: circINSR: circRNA formed through backsplicing of the second exon of the insulin receptor gene transcript; overexpressed from plasmid or AAV (nucleic acid, listed as Homo sapiens)
chain: UGUGUCCCGGCAUGGAUAUCCGGAACAACCUCACUAGGUUGCAUGAGCUGGAGAAUUGCUCUGUCAUCGAAGGACACUUGCAGAUACUCUUGAUGUUCAAAACGAGGCCCGAAGAUUUCCGAGACCUCAGUUUCCCCAAACUCAUCAUGAUCACUGAUUACUUGCUGCUCUUCCGGGUCUAUGGGCUCGAGAGCCUGAAGGACCUGUUCCCCAACCUCACGGUCAUCCGGGGAUCACGACUGUUCUUUAACUACGCGCUGGUCAUCUUCGAGAUGGUUCACCUCAAGGAACUCGGCCUCUACAACCUGAUGAACAUCACCCGGGGUUCUGUCCGCAUCGAGAAGAACAAUGAGCUCUGUUACUUGGCCACUAUCGACUGGUCCCGUAUCCUGGAUUCCGUGGAGGAUAAUUACAUCGUGUUGAACAAAGAUGACAACGAGGAGUGUGGAGACAUCUGUCCGGGUACCGCGAAGGGCAAGACCAACUGCCCCGCCACCGUCAUCAACGGGCAGUUUGUCGAACGAUGUUGGACUCAUAGUCACUGCCAGAAAG
modifications: circular RNA; RNA sequence
notes: circRNA formed through backsplicing of the second exon of the insulin receptor gene transcript; overexpressed from plasmid or AAV
Apoptotic cardiomyocytes
  apoptotic cardiomyocytes (TUNEL / cTNT): significantly blunted
cardiomyocytes
  cardiomyocyte size: indistinguishable from control mice
HL-1 cells [1]
  cell viability (WST-1): enhanced cell viability
HL-1 cells [1]; listed as circ-Insr
  cell viability (WST-1): enhance the cell survival
HL-1 cells [2]
  mtDNA copy number / mtDNA content: reverse the decrease
SSBP1
  interaction of circINSR with SSBP1: confirmed a physical interaction
